Experimental data published in patent US20090075291A1 (RESEARCH FOUNDATION OF STATE UNIVERSITY OF NEW YORK, published 2009).
Residue numbers refer to the chain shown, from its start.

Columns and labels:
[1] = target: T1, Recombinant Cx43CT (carboxyl terminal domain of rat connexin43, residues 255-382, preceded by GPLG) (rat, UniProt P08050 255-382); test: SPR, Cx43CT immobilized on carboxymethyl dextran
T1 construct: range 255-382; Made in E. coli as a GST fusion (pGEX-6P-2) and cleaved from GST; the protein used was derived from rat cDNA; 15N-labeled for NMR; also called recombinant CT; 15N-Cx43CT
Procedure: Recombinant Cx43CT was covalently bound to a carboxylmethyl dextran matrix (Salamon et al., “Surface Plasmon Resonance Spectroscopy as a Tool for Investigating the Biochemical and Biophysical Properties of Membrane Protein Systems. II: Applications to Biological Systems,” Biochim. Biophys. Acta 1331(2):131-152 (1997), which is hereby incorporated by reference in its entirety). Specific peptides were presented and, when feasible, dissociation constants (KD) were calculated from the time course of binding and unbinding of the ligand, using a 1:1 (Langmuir) association and dissociation kinetic model (Biacore software package). In both phases (association and dissociation), the first 5-8 seconds of recording were not included in the fit, to avoid artifacts resulting from peptide distribution within the flow cells (Lang et al., “Surface Plasmon Resonance as a Method to Study the Kinetics and Amplitude of Protein-protein Binding,” in PRACTICAL METHODS IN CARDIOVASCULAR […] 936-947 (Stefan Dhein, Friedrich Wilhelm Mohr & Mario Delmar eds., 2005), which is hereby incorporated by reference in its entirety).
Phage display allows for the rapid screening of thousands of peptides, but the characteristics of binding cannot be properly defined. Furthermore, the peptides are part of a capsid protein, which may affect the ability of the peptide to properly interact with the target protein. Therefore, some of the peptides identified by the phage screening were selected to, using SPR, further characterize their ability to bind Cx43CT. Recombinant Cx43CT was covalently bound to a carboxymethyl dextran matrix and synthetic peptides presented for binding. A total of six 12-mer peptides from the non-biased screening (peptides labeled RXP1 to RXP6 in Table 1) and 5 peptides from the biased screening (labeled RXP-A to RXP-E in Table 3) were tested. […] Peptide RXP4 (SEQ ID NO:15) caused the largest deflection in SPR signal. RXP4 (250 μM) was added at time “zero.” Washout was initiated after two minutes of exposure.

[2] = target: T1, Recombinant Cx43CT (carboxyl terminal …); test: SPR, peptide 1.0 mM
[3] = target: Cx43 expressed in N2a cells (Cx43 gap junction channels); test: cell-based or functional assay
[4] = target: T1, Recombinant Cx43CT (carboxyl terminal …); test: SPR, Cx43CT immobilized, 1:1 Langmuir kinetic fit, pH 6.5 and 7.4
Procedure: A total of six 12-mer peptides from the non-biased screening (peptides labeled RXP1 to RXP6 in Table 1) and 5 peptides from the biased screening (labeled RXP-A to RXP-E in Table 3) were tested. […] Peptide RXP4 (SEQ ID NO:15) caused the largest deflection in SPR signal. RXP4 (250 μM) was added at time “zero.” Washout was initiated after two minutes of exposure. […] Higher concentrations of the peptide were tested but an asymptotic maximum response could not be detected. In addition, dissociation rates were too fast to reliably use them to calculate the kinetics of binding.
A different result emerged from the testing of the doublets. […] In contrast, peptide RXP-E (SEQ ID NO:10) generated a large, concentration-dependent deflection followed by a slow dissociation upon washout, as shown in FIG. 3B. The transitions were well-fit by exponential functions and the rates of association and dissociation were used as described in Example 4 to estimate the kinetic parameters. A full range of concentrations was tested in three separate occasions and at two different pHs of the solvent (6.5 and 7.4). No differences were observed as a function of pH.

[5] = target: T2, Cx43 from rat heart lysate (rat, UniProt P08050 2-382); test: Cx43 pulldown assay, percent binding relative to RXPE; Example 19 does not state the source of Cx43
T2 construct: Native protein pulled down from a tissue lysate; also called cardiac Cx43
T2 sequence (P08050 2-382 limits assumed): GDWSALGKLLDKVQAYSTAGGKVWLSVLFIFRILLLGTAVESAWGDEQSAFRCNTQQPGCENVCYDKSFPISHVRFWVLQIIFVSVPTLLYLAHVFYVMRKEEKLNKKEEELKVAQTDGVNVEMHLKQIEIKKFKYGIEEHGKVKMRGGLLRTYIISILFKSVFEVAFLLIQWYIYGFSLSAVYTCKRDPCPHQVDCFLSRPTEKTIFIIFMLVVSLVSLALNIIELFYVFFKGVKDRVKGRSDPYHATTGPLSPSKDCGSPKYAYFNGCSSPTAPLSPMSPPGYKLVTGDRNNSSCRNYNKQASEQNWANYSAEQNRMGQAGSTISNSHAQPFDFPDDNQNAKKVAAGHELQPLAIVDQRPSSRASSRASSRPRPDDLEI

T1 sequence (P08050 other isoform, or with tags, fused parts or gaps limits assumed): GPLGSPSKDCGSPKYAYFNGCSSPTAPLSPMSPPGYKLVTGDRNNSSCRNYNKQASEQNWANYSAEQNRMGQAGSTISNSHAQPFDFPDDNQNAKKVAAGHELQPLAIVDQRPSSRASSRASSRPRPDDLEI

B1: RXP-B (peptide)
peptide: EIQPRSPLMFSGGGSAHARVPFYSHSAKEARWPRAHR
notes: Synthetic doublet peptide from the biased phage display screen
binding result [1]: no binding

B2: Peptide 2501, AcRNPRNP-NH2 (peptide)
peptide: Ac-RNPRNP-NH2
Response Dose [2]: 24.8 arbitrary units

B3: RXP-D (peptide)
peptide: WEEPRRPFTMSGGGSAETHARVPFYSHSPMRHRLPGVHL
notes: as for B1
binding result [1]: no binding

B4: RXP-E (peptide)
peptide: SDDLRSPQLHNGGGSAVPFYSHSHMVRRKPRNPR
notes: as for B1
junctional conductance (Gj) relative to control at pipette pH 6.2 (acidification-induced uncoupling) [3]: 57 % of control | junctional conductance (Gj) relative to control during octanol superfusion [3]: 57.6 % of control | Kd [4]: 3.9 µM

B5: 58 (peptide)
peptide: B4 peptide with R5A, P7A, R31A, P33A
notes: also called RXPE mutant (5,7,31,33pa)
binding result [5]: no binding

B6: 31 (peptide)
peptide: B4 peptide with R5A, P7A, P30A, R31A
notes: also called RXPE mutant (5,7,30,31A)
binding result [5]: no binding

B7: 29 (peptide)
peptide: B4 peptide with R31A, P33A
notes: also called RXPE mutant (31,33A)
binding result [5]: no binding

B8: Peptide 2504, AcRRKP-NH2 (peptide)
peptide: Ac-RRKP-NH2
Response Dose [2]: 46.5 arbitrary units

B9: Peptide 2505, AcRRNP-NH2 (peptide)
peptide: Ac-RRNP-NH2
Response Dose [2]: 34.9 arbitrary units

B10: RXP-C (peptide)
peptide: GIAAREPNSHDGGGSAHARVPFYSHSRDLWRKPAKSL
notes: as for B1
binding result [1]: no binding

B11: Peptide 2503, AcRRKPRRKP-NH2 (peptide)
peptide: Ac-RRKPRRKP-NH2
Response Dose [2]: 295 arbitrary units

B12: RXP-A (peptide)
peptide: DVPGRDPGYIKGGGSAHARVPFYSHSLNRNRKPSLYQ
notes: as for B1
binding result [1]: no binding
